Laboratory results: patent US20260108607A1 (BEIJING DCTY BIOTECH, published 2026)

How the values were obtained:
[1] = molecular target: T1, EGFR (wild type) expressed on target cells (UniProt P00533 25-1210, limits assumed); test: flow cytometry of the subclone supernatant on F98npEGFR cells (Geom mean)
T1 construct: whole, on cells; also called F98npEGFR; U87MG-EGFR

[2] = molecular target: T2, EGFRvIII target antigen (SPR ligand) (UniProt P00533 25-645, limits assumed); test: SPR; EGFRvIII as ligand, antibody as analyte
T2 construct: also called EGFRvIII antigen

[3] = molecular target: T3, EGFRvIII overexpressed on target cells (UniProt P00533 25-1210); test: flow cytometry of the subclone supernatant on F98npEGFRvIII cells (Geom mean)
T3 construct: whole, on cells; Same protein on two cell lines: F98npEGFRvIII for flow cytometry, U87MG-EGFRvIII for the killing assays; also called F98npEGFRvIII; U87MG-EGFRvIII

[4] = molecular target: T2, EGFRvIII target antigen (SPR ligand); test: SPR; antibody as analyte
[5] = molecular target: T2, EGFRvIII target antigen (SPR ligand); test: SPR

Binder | binding result [1] | koff [2] [s⁻¹] | binding result [3] | Kd [2] [nM] | kon [2] [M⁻¹ s⁻¹] | Kd [4] [nM] | koff [4] [s⁻¹] | kon [4] [M⁻¹ s⁻¹] | fold reduction of affinity against the murine antibody from clone #40-2 [5] [fold]
murine antibody 20-2-4 (clone 88A3C8) (antibody, V domains shown, Murine monoclonal antibody purified from the subclone supernatant; also called clone #4) VH: EVQLQQSGAELVRPGALVKLSCKASGFNIKDYYMHWVKQRPEQGLEWIGWIDPENGNTIYDPKFQGKASITADTSSNTAYLQLSSLTSEDTAVYYCARGWFAYWGQGTLVTVSA VL: DILMTQSPSSLAMSVGQKVTMSCKSSQSLLNSSNQKNHLAWYQQKPGQSPKLLVYFASTRASGVPDRFIGSGSGTDFTLTISSVQAEDLADYFCQQHYSTPLTFGAGTKLELK | no binding | 0.00864 |  |  |  |  |  |  | 
murine antibody 20-2-1 (clone 83F7B2) (antibody, V domains shown, Murine monoclonal antibody purified from the subclone supernatant) VH: QIQLVQSGPELKKPGETVKISCKASGYTFTDFSMHWVKQAPGKGLKWMGWINTETGEPSYADDFKGRFAFSLETSASTAYLQINNLKNEDTATYFCANYGYDVRGDYWGQGTTLTVSS VL: EIVLTQSPTTMAASPGEKITITCSASSSISSNYLHWYQQKPGFSPKLLIYGTSNLASGVPARFSGSGSGTSYSLTIGTMEAEDVATYYCHQGSSIPLTFGAGTKLELK | no binding | 0.00119 |  | 23.7 | 50100 |  |  |  | 
humanized antibody 40-2-H11 (98G2E9-VH5 + VL7) (scFv, the format in the SPR assay is not clearly stated) scFv: EVQLLESGGGLVQPGGSLKLSCAASGFTFSGYAMSWVRQTPGKGLEWVATITSGGSYTYYPDSVKGRFTISRDNSKNTLYLQMNSLRAEDTAMYYCARKDYGNYWFAYWGQGTLVTVSSGGGGSGGGGSGGGGSGGGGSDVVMTQSPLSLPVTLGDQASISCRSSQSLVHSDGNTYLHWYLQKPGQSPKLLIYKVSNRFSGVPDRFSGSGSGTDFTLKISRVEAEDVGVYFCSQTTQVPWTFGGGTKLEIK |  |  |  |  |  | 138 | 0.00343 | 24800 | ~2
humanized antibody 40-2-H12 (98G2E9-VH6 + VL5) (scFv, the format in the SPR assay is not clearly stated) scFv: EVQLLESGGGLVQPGGSLKLSCAASGFTFSGYAMSWVRQTPEKGLEWVATITSGGSYTYYPDSVKGRFTISRDNAKNTLYLQMNSLRAEDTAMYYCARKDYGNYWFAYWGQGTLVTVSSGGGGSGGGGSGGGGSGGGGSDVVMTQSPLSLPVTLGDPASISCRSSQSLVHSDGNTYLHWYLQRPGQSPRLLIYKVSNRFSGVPDRFSGSGSGTDFTLKISRVEAEDVGVYFCSQTTQVPWTFGGGTKLEIK |  |  |  |  |  | 102 | 0.00266 | 26000 | ~2
humanized antibody 40-2-H10 (98G2E9-VH5 + VL6) (scFv, the format in the SPR assay is not clearly stated) scFv: EVQLLESGGGLVQPGGSLKLSCAASGFTFSGYAMSWVRQTPGKGLEWVATITSGGSYTYYPDSVKGRFTISRDNSKNTLYLQMNSLRAEDTAMYYCARKDYGNYWFAYWGQGTLVTVSSGGGGSGGGGSGGGGSGGGGSDVVMTQSPLSLPVTLGQQASISCRSSQSLVHSDGNTYLHWYLQKPGQSPKLLIYKVSNRFSGVPDRFSGSGSGTDFTLKISRVEAEDVGVYFCSQTTQVPWTFGGGTKLEIK |  |  |  |  |  | 135 | 0.00345 | 25600 | ~2

Continued, values first:

binding result [1] | koff [2] [s⁻¹] | binding result [3] | Kd [2] [nM] | kon [2] [M⁻¹ s⁻¹] | Kd [4] [nM] | koff [4] [s⁻¹] | kon [4] [M⁻¹ s⁻¹] | fold reduction of affinity against the murine antibody from clone #40-2 [5] [fold] | Binder
no binding | 0.0165 |  |  |  |  |  |  |  | murine antibody 20-2-28 (clone 84C3G8H7) (antibody, V domains shown, Murine monoclonal antibody purified from the subclone supernatant; also called clone #28) VH: EVQLQQSGAELVRPGALVKLSCKASGFNIKDYYMHWVKQRPEQGLEWIGWIDPENGNTIYDPKFQGKASITADTSSNTAYLQLSSLTSEDTAVYYCARGWFAYWGQGTLVTVSA VL: not shown
no binding |  | binds |  |  |  |  |  |  | 20-2-13 (antibody, V domains shown, also called 90F6C1) VH: QVQLQQPGAELVKPGASVKLSCKASGYSFTRYWMHWVKQRPGQGLEWIGEINPSNGRANYNEKFMSKATLTVDKSSSTAYMQLSSLTSEDSAVYYCARGREITTGFAYWGQGTLVTVSA VL: SIVMTQTPKFLLVSAGDRVTITCKASQSVSNDVVWYQQKPGQSPKLLIYYASNRYTGVPDRFTGSGYGTDFTFTITTVQAEDLAVYFCQQDYSSPWTFGGGTKLEIK
no binding |  | binds |  |  |  |  |  |  | 20-2-7 (antibody, V domains shown, also called 89C2A11) VH: QIQLVQSGPELKKPGETVKISCKASGYTFTDYSIHWVKQAPGKGLKWMGWINTETGEPTYADDFKGRFAFSLETSASTAYLQINNLKNEDTATYFCSNYGYDVRGDYWGQGTTLTVSS VL: EIVLTQSPTTMAASPGENITITCSASSGISSNYLHWYQQKPGFSPELLIYSTSNLASGVPARFSGSGSGTSYSLTIGTMEAEDVATYYCHQGSDIPLTFGAGTRLELK
 |  |  |  |  | 112 | 0.00307 | 27400 | ~2 | humanized antibody 40-2-H9 (98G2E9-VH5 + VL5) (scFv, the format in the SPR assay is not clearly stated) scFv: EVQLLESGGGLVQPGGSLKLSCAASGFTFSGYAMSWVRQTPGKGLEWVATITSGGSYTYYPDSVKGRFTISRDNSKNTLYLQMNSLRAEDTAMYYCARKDYGNYWFAYWGQGTLVTVSSGGGGSGGGGSGGGGSGGGGSDVVMTQSPLSLPVTLGDPASISCRSSQSLVHSDGNTYLHWYLQRPGQSPRLLIYKVSNRFSGVPDRFSGSGSGTDFTLKISRVEAEDVGVYFCSQTTQVPWTFGGGTKLEIK
 |  |  |  |  | 102 | 0.00301 | 29400 | ~2 | humanized antibody 40-2-H13 (98G2E9-VH6 + VL6) (scFv, the format in the SPR assay is not clearly stated) scFv: EVQLLESGGGLVQPGGSLKLSCAASGFTFSGYAMSWVRQTPEKGLEWVATITSGGSYTYYPDSVKGRFTISRDNAKNTLYLQMNSLRAEDTAMYYCARKDYGNYWFAYWGQGTLVTVSSGGGGSGGGGSGGGGSGGGGSDVVMTQSPLSLPVTLGQQASISCRSSQSLVHSDGNTYLHWYLQKPGQSPKLLIYKVSNRFSGVPDRFSGSGSGTDFTLKISRVEAEDVGVYFCSQTTQVPWTFGGGTKLEIK
